Key:
[1] = molecular target: RsrA (Streptomyces coelicolor) (UniProt Q7AKG8); settings: cited from earlier work
[2] = molecular target: Anti-σ domain (ASD) of Mycobacterium tuberculosis RslA (residues 1–108), Zn2+-bound (Mycobacterium tuberculosis) (UniProt P9WJ67); assay: crystal structure
Chain of Anti-σ domain (ASD) of Mycobacterium tuberculosis RslA (residues 1–108), Zn2+-bound (Mycobacterium tuberculosis) (P9WJ67 1-108): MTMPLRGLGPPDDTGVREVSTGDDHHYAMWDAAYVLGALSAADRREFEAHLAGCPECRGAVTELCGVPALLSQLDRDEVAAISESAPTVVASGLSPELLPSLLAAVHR

Chain of σR (Q7AKG9 whole entry): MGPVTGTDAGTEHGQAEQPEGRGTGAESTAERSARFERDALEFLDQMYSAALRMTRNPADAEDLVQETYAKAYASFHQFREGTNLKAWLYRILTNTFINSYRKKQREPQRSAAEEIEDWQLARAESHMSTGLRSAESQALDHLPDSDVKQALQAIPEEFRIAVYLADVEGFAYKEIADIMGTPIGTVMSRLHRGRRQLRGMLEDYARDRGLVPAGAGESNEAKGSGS
Chain of RsrA (Streptomyces coelicolor) (Q7AKG8 whole entry, the tested form may be a part): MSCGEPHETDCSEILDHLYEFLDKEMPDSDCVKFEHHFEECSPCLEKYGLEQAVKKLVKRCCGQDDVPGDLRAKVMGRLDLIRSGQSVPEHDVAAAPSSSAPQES

Substance	Kd [1] [nM]	stoichiometry N [2]
σR (from UniProt Q7AKG9)	10	–
σ4^L, the −35-element recognition domain of Mycobacterium tuberculosis σ^L (from UniProt P9WGH5 99-177) (domain or fragment)	–	1

Source: publication PMC2877774
